The text below walks through data of paper PMC2821881.

This experiment concerns the target phosphorylated microtubule-associated protein (pMAP) labelled by the 12E8 antibody (chick (endogenous in primary chick neurons)). Briefly: FRET or BRET. (In general: BRET reads energy transfer from a luciferase to a nearby fluorophore.)

Consider “human cofilin-GFP (from UniProt P23528 1-166) (natural protein)”, for which the FRET efficiency amounted to 41%.
